Measured values: publication doi:10.1101/2025.11.26.690747

Experiments:
[1] = molecular target: Strep-tagged ACDC domain of PvAP2-I (residues 30-180) (P. vivax); test: thermal shift assay
[2] = molecular target: His-tagged PvBDP1 ankyrin domain (fragment 1-220) (P. vivax); test: thermal shift assay

| Substance | Tm of the ACDC domain with peptide at a 1:10 molar ratio (61.1°C alone) [1] | Tm of the ACDC domain with peptide at a 1:40 molar ratio (61.1°C alone) [1] | Tm of the ankyrin domain with peptide at a 1:10 molar ratio (50.0°C alone) [2] | Tm of the ankyrin domain with peptide at a 1:40 molar ratio (50.0°C alone) [2] |
| --- | --- | --- | --- | --- |
| synthetic peptide corresponding to PvBDP1 BAAS (residues 275-296) | 60.1 °C | 59.8 °C | – | – |
| synthetic peptide corresponding to the α3 helix of ASAIR of PvAP2-I (residues 280-310) | – | – | 50.7 °C | 51.2 °C |
